The target of assay [1] is T1, METΔ7-8 (Homo sapiens, UniProt P08581, DEL622-701).
T1 construct: the majority of MET protein was in a 180 kDa phosphorylated form, corresponding to the uncleaved truncated preform; endogenous in cells; host or cells: E98 glioma cells, serum-starved
Put plainly: MET phosphorylation in serum-starved E98 cells (western blot). It counts as cell-based. The conditions noted are these: FIG. 5. Here is the method: (§1) All cell lines were maintained at 37° C. in the presence of 5% CO2. To examine HGF-induced MET activation, E98 and A549 cells were seeded in 6 wells plates. The next day cells were serum-starved overnight. The following day cells were treated for 10 minutes (min) with HGF (50 ng/mL, Miltenyi Biotec, Bergisch Gladbach, Germany).
(§2) Cell lysates were prepared using RIPA buffer containing protease and phosphatase inhibitors (Cell Signaling Technology, CST, Danvers, Mass., USA). RIPA extracts (20-40 μg per lane) and His-tagged proteins from conditioned media (equivalent of 20 μl conditioned medium) were subjected to PAGE on 8-10% polyacrylamide gels and western blotting according to standard procedures. Nitrocellulose blots (Whatman Optitran BA-S85, GE Healthcare, Little Chalfont, UK) were blocked with PBS/Odyssey Blocking Buffer (LI-COR Biosciences, Lincoln, Nebr., USA) (1:1), followed by overnight incubation with primary antibodies at 4° C. […] Biotin groups and primary antibodies were visualized using respectively streptavidin-680 (Molecular Probes, Life Technology) and appropriate secondary antibodies [goat-anti-rabbit-IRDye800 (Rockland Immunochemicals, Gilbertsville, Pa., USA) or Alexa Fluor 680 goat-anti-mouse IgG (Molecular Probes, Life Technologies)]. Blots were scanned on the Odyssey imager (LI-COR Biosciences).
(A western blot detects proteins with antibodies after separation by electrophoresis.)

Assay [2] has as its target T2, wtMET (Homo sapiens, UniProt P08581).
T2 construct: in A549 cells the matured, cleaved MET protein was the predominant form; endogenous in cells; host or cells: A549 cells, serum-starved
Put plainly: MET phosphorylation in serum-starved A549 cells (western blot). It is filed as cell-based. The conditions noted are these: FIG. 1B, FIG. 5. As for the experimental part:
as §1, §2

The subject of assay [3] is AKT. Put plainly: AKT phosphorylation in E98 cells (western blot). It counts as cell-based, human. The conditions noted are these: serum-starved E98 cells; FIG. 5. Here is the method: (§3) The E98 cell line and xenograft model and genetic analysis thereof have been described before (Caretti et al., 2011; Claes et al., 2008). E98, U87, A549, HEK-293T and TOV-112D cells were cultured in DMEM+4.5 g/L glucose medium (PAA Laboratories, Pasching, Austria) supplemented with 10% fetal calf serum (FCS) (PAA) and gentamycin (40 μg/mL). All cell lines were maintained at 37° C. in the presence of 5% CO2. To examine HGF-induced MET activation, E98 and A549 cells were seeded in 6 wells plates. The next day cells were serum-starved overnight. The following day cells were treated for 10 minutes (min) with HGF (50 ng/mL, Miltenyi Biotec, Bergisch Gladbach, Germany). In some experiments, prior to HGF incubation cells were incubated with the anti-MET llama VHH G2 (Heukers et al., 2014) or cabozantinib (XL-184, Exelixis, San Francisco, Calif.) for 60 min.
(§4) Cell lysates were prepared using RIPA buffer containing protease and phosphatase inhibitors (Cell Signaling Technology, CST, Danvers, Mass., USA). RIPA extracts (20-40 μg per lane) and His-tagged proteins from conditioned media (equivalent of 20 μl conditioned medium) were subjected to PAGE on 8-10% polyacrylamide gels and western blotting according to standard procedures. […]

Assay [4] deals with AKT. Put plainly: AKT phosphorylation in A549 cells (western blot). It counts as cell-based, human. The conditions noted are these: FIG. 5. As for the experimental part:
as §3, §4

For assay [5], the system named is lung cancer. The conditions noted are these: phase II study, lung cancer (Spigel et al., 2013); cited from earlier work.

“Also recorded” adds a separate entry of the source.

Take “HGF: ligand Hepatocyte Growth Factor (HGF, Scatter Factor) of MET”: in assay [1], the “activation of the minority of processed β-fragment of MET” value is recorded as “slight activation”. For the same substance, in assay [1] (HGF 50 ng/mL 10 min, G2 or cabozantinib 60 min, FIG. 1B), the “overall MET phosphorylation levels” value is recorded as “did not further increase”. In assay [2], the MET phosphorylation entry is “required for MET activation; also recorded: induced MET phosphorylation”. For the same substance, the “levels of pAKT” value in assay [3] was “neither G2 nor HGF treatment resulted in altered levels”; in assay [4], “increased levels of pAKT”.
Regarding “MetMab: antibody; MET activation inhibitor tested in a phase II study for lung cancer”, the “primary end point of prolonged survival” value in assay [5] is “failed to meet the primary end point”.

The values above are taken from patent US11035860B2, “Auto-active and intracellular mutant of MET” (Stichting Katholieke Universiteit, priority 2014, dated 2021).
